Results on 39 molecules are retold here after paper PMC11417369, “DNA sequence and chromatin differentiate sequence-specific transcription factor binding in the human malaria parasite Plasmodium falciparum”.

Numbering of substitutions follows the chain as printed.

The target of data set [1] is T1, AP2-HC D1 (Plasmodium falciparum, UniProt Q8IKR9 1316-1374).
T1 sequence: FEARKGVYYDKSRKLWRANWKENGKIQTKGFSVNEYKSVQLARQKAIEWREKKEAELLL
Description: gcPBM; about 25 ug protein; PBS, 1% milk, 0.2 mg/ml BSA, salmon testes DNA, 0.03% Triton X-100. The following applies: tags: N-terminal GST (pGEX-4T-1), kept; label: surface-attached array probe.

In data set [2] the target is T2, PF3D7_0420300 D1 (Plasmodium falciparum, UniProt Q8I1N6 1956-2015).
T2 sequence: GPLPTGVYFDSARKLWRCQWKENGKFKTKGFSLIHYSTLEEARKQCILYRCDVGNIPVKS
The data set is described as above. The following applies: tags: N-terminal GST (pGEX-4T-1), kept; label: surface-attached array probe.

B1: CACACA_negctrl_site1399 (dsDNA)
DNA 1: TATTTTAATTTTTTTTTGTTTTTTCTAATACATGTA
DNA 2: TACATGTATTAGAAAAAACAAAAAAAAATTAAAATA
Turning to B1, in data set [1], the binding signal was 9.45 ln median PBM intensity, better of two orientations.

B2: CACACA_negctrl_site217 (dsDNA)
DNA 1: TAATTTCATCATATTTGTTCCTTCTCAAAATTTTTT
DNA 2: AAAAAATTTTGAGAAGGAACAAATATGATGAAATTA
B2: in data set [1], the binding signal is 9.48 ln median PBM intensity, better of two orientations.

B3: CACACA_negctrl_site1092 (dsDNA)
DNA 1: TCAAAATGTGACATAAAAGAAAAAAAAAAAAAAAAA
DNA 2: TTTTTTTTTTTTTTTTTCTTTTATGTCACATTTTGA
Consider B3, for which the binding signal in data set [1] is 9 ln median PBM intensity, better of two orientations; in data set [2], 8.62 ln median PBM intensity, better of two orientations.

B4: CACACA_negctrl_site1531 (dsDNA)
DNA 1: TATTTCCATTCATAATTTTGTAGAATATATAACCGT
DNA 2: ACGGTTATATATTCTACAAAATTATGAATGGAAATA
For the molecule B4, the binding signal in data set [1] was 9.51 ln median PBM intensity, better of two orientations.

B5: CACACA_negctrl_site1685 (dsDNA)
DNA 1: ATATATATATAAATATAAATATATATATATATATAT
DNA 2: B5 DNA 1 with A12T, A18T, A19T, A25T
Regarding B5, in data set [1], the binding signal was 9.5 ln median PBM intensity, better of two orientations.

B6: CACACA_negctrl_site660 (dsDNA)
DNA 1: TTTTCTTAATATTTCGTTTTACATAAACCTTTTAAA
DNA 2: TTTAAAAGGTTTATGTAAAACGAAATATTAAGAAAA
On to B6, for which the binding signal in data set [1] is 9.51 ln median PBM intensity, better of two orientations.

B7: CACACA_negctrl_site1232 (dsDNA)
DNA 1: AATATTTTTCAATTTCATGTGCATTCATTGAAGTTA
DNA 2: TAACTTCAATGAATGCACATGAAATTGAAAAATATT
For the molecule B7, the binding signal in data set [1] was 9.51 ln median PBM intensity, better of two orientations.

B8: CACACA_negctrl_site1028 (dsDNA)
DNA 1: ATTTTTTTATGTACACAAAAAAAAAAAAAAATTTAA
DNA 2: TTAAATTTTTTTTTTTTTTTGTGTACATAAAAAAAT
For B8, in data set [1], the binding signal is 9.48 ln median PBM intensity, better of two orientations.

B9: CACACA_negctrl_site566 (dsDNA)
DNA 1: TATTTTTATACAATTTAACACGGGTTATAAAATGTA
DNA 2: TACATTTTATAACCCGTGTTAAATTGTATAAAAATA
On to B9, for which the binding signal in data set [1] was 9.46 ln median PBM intensity, better of two orientations.

B10: CACACA_negctrl_site39 (dsDNA)
DNA 1: AATATATCAAAAATTGGATAGTTTCTTATAAAAAAT
DNA 2: ATTTTTTATAAGAAACTATCCAATTTTTGATATATT
Turning to B10, in data set [1], the binding signal was 9.45 ln median PBM intensity, better of two orientations.

B11: CACACA_negctrl_site1512 (dsDNA)
DNA 1: ACGAATTAAATGGATTAATATATATATGTATATTTA
DNA 2: TAAATATACATATATATATTAATCCATTTAATTCGT
As for B11, the binding signal in data set [1] was 9.5 ln median PBM intensity, better of two orientations.

B12: CACACA_negctrl_site844 (dsDNA)
DNA 1: AATATCATCCTTTTTTTTTATAAAATTTAAAATATA
DNA 2: TATATTTTAAATTTTATAAAAAAAAAGGATGATATT
On to B12, for which, in data set [1], the binding signal is 9.5 ln median PBM intensity, better of two orientations.

B13: CACACA_negctrl_site607 (dsDNA)
DNA 1: TGTGTCAAGTTTAATAAACGCATATAATATATATGA
DNA 2: TCATATATATTATATGCGTTTATTAAACTTGACACA
In the case of B13, the binding signal in data set [1] is 9.51 ln median PBM intensity, better of two orientations.

B14: CACACA_negctrl_site680 (dsDNA)
DNA 1: AACACTCAAAAAAATTTAAATAAAAAAAAAAAAAAA
DNA 2: TTTTTTTTTTTTTTTATTTAAATTTTTTTGAGTGTT
Turning to B14, the binding signal in data set [1] was 9.05 ln median PBM intensity, better of two orientations; in data set [2], 8.7 ln median PBM intensity, better of two orientations.

B15: CACACA_negctrl_site368 (dsDNA)
DNA 1: TTTTTCATTTCTGCATTTATTTATAAATAAATATTT
DNA 2: AAATATTTATTTATAAATAAATGCAGAAATGAAAAA
As for B15, the binding signal in data set [1] was 9.47 ln median PBM intensity, better of two orientations.

B16: CACACA_negctrl_site398 (dsDNA)
DNA 1: TATTTATTTATTTATTTATTTATTTATTTATATTTA
DNA 2: TAAATATAAATAAATAAATAAATAAATAAATAAATA
On to B16, for which the binding signal in data set [1] is 9.48 ln median PBM intensity, better of two orientations.

B17: CACACA_negctrl_site1286 (dsDNA)
DNA 1: TTGTATTCCTTTTACAACTACCATGAAGAGAATTTT
DNA 2: AAAATTCTCTTCATGGTAGTTGTAAAAGGAATACAA
Regarding B17, in data set [1], the binding signal is 9.49 ln median PBM intensity, better of two orientations.

B18: CACACA_negctrl_site1635 (dsDNA)
DNA 1: TTTTGATATAAATATTAGATTAATAAATAAAAAAAT
DNA 2: ATTTTTTTATTTATTAATCTAATATTTATATCAAAA
In the case of B18, the binding signal in data set [1] was 9.46 ln median PBM intensity, better of two orientations.

B19: CACACA_negctrl_site474 (dsDNA)
DNA 1: TAAAAAAAGGAAAACATACAATTCTATTTTTCAATA
DNA 2: TATTGAAAAATAGAATTGTATGTTTTCCTTTTTTTA
With B19, the binding signal in data set [1] is 9.49 ln median PBM intensity, better of two orientations.

B20: CACACA_negctrl_site1235 (dsDNA)
DNA 1: TTTAAAAAAAAAAAAAAAAAAAAAAAAAAAAATTTG
DNA 2: CAAATTTTTTTTTTTTTTTTTTTTTTTTTTTTTAAA
B20: the binding signal is 9.1 ln median PBM intensity, better of two orientations in data set [1] and 8.59 ln median PBM intensity, better of two orientations in data set [2].

B21: CACACA_negctrl_site929 (dsDNA)
DNA 1: ACAGATATACATAAAAAAAAAATAATTTTACATATA
DNA 2: TATATGTAAAATTATTTTTTTTTTATGTATATCTGT
Consider B21, for which, in data set [1], the binding signal is 9.47 ln median PBM intensity, better of two orientations.

B22: CACACA_negctrl_site1828 (dsDNA)
DNA 1: ATCTCAAATATAATAAATTATTAGGTATATATATAT
DNA 2: ATATATATATACCTAATAATTTATTATATTTGAGAT
For B22, in data set [1], the binding signal is 9.46 ln median PBM intensity, better of two orientations.

B23: CACACA_negctrl_site809 (dsDNA)
DNA 1: AAATAATATTTTTTTTTTTTTTTTTTTTTATGTTAT
DNA 2: ATAACATAAAAAAAAAAAAAAAAAAAAATATTATTT
As to B23, the binding signal in data set [1] was 9.46 ln median PBM intensity, better of two orientations.

B24: CACACA_negctrl_site215 (dsDNA)
DNA 1: ATAAAATATTATATATATATATATATATATATATAT
DNA 2: ATATATATATATATATATATATATATAATATTTTAT
For the molecule B24, the binding signal in data set [1] was 9.5 ln median PBM intensity, better of two orientations.

B25: CACACA_negctrl_site1762 (dsDNA)
DNA 1: TTTTTTTCTTCTTTTCTCTTAAAAATATTGAATATT
DNA 2: AATATTCAATATTTTTAAGAGAAAAGAAGAAAAAAA
Regarding B25, in data set [1], the binding signal was 9.49 ln median PBM intensity, better of two orientations.

B26: CACACA_negctrl_site347 (dsDNA)
DNA 1: TTATATATATTTAAAAAAATAACATAAATAAATAAA
DNA 2: TTTATTTATTTATGTTATTTTTTTAAATATATATAA
B26: the binding signal in data set [1] was 9.47 ln median PBM intensity, better of two orientations.

B27: CACACA_negctrl_site721 (dsDNA)
DNA 1: TTTTAAAAAAAATAAAAAATAAACAATAATAAATAA
DNA 2: TTATTTATTATTGTTTATTTTTTATTTTTTTTAAAA
B27: the binding signal in data set [1] was 9.49 ln median PBM intensity, better of two orientations.

B28: CACACA_negctrl_site1 (dsDNA)
DNA 1: TTTTTTATTGTGATACGTATATTATTTTTTGATAAA
DNA 2: TTTATCAAAAAATAATATACGTATCACAATAAAAAA
Turning to B28, the binding signal in data set [1] is 9.51 ln median PBM intensity, better of two orientations.

B29: CACACA_negctrl_site148 (dsDNA)
DNA 1: TTTTTGATGAAATATTATTTTCCTGACTTGGATTAA
DNA 2: TTAATCCAAGTCAGGAAAATAATATTTCATCAAAAA
B29: the binding signal in data set [1] is 9.49 ln median PBM intensity, better of two orientations; in data set [2], 8.86 ln median PBM intensity, better of two orientations.

B30: CACACA_negctrl_site1152 (dsDNA)
DNA 1: TCATATTTGCCTTTTTATTTAGAACACAAAAAAAAA
DNA 2: TTTTTTTTTGTGTTCTAAATAAAAAGGCAAATATGA
As for B30, the binding signal in data set [1] was 9.29 ln median PBM intensity, better of two orientations; in data set [2], 8.77 ln median PBM intensity, better of two orientations.

B31: CACACA_negctrl_site842 (dsDNA)
DNA 1: ACTAAAAGATATATAATTTCTTTCTTATTTATTTTT
DNA 2: AAAAATAAATAAGAAAGAAATTATATATCTTTTAGT
Turning to B31, in data set [1], the binding signal is 9.49 ln median PBM intensity, better of two orientations.

B32: CACACA_negctrl_site1022 (dsDNA)
DNA 1: ATAAATTGTTCTTTTTGTGTAAACAGAATATTAAAA
DNA 2: TTTTAATATTCTGTTTACACAAAAAGAACAATTTAT
As to B32, the binding signal in data set [1] was 9.48 ln median PBM intensity, better of two orientations.

B33: CACACA_negctrl_site484 (dsDNA)
DNA 1: ATTCATATTAAATATATATATATATATATATATATA
DNA 2: TATATATATATATATATATATATATTTAATATGAAT
In the case of B33, in data set [1], the binding signal is 9.51 ln median PBM intensity, better of two orientations.

B34: CACACA_negctrl_site629 (dsDNA)
DNA 1: TGCTTATATCTTATAATATTTATACATCATAATAAG
DNA 2: CTTATTATGATGTATAAATATTATAAGATATAAGCA
With B34, the binding signal in data set [1] is 9.47 ln median PBM intensity, better of two orientations.

B35: CACACA_negctrl_site272 (dsDNA)
DNA 1: TACCTTTCTTATTATTGAAAAGGAATATATAAATAG
DNA 2: CTATTTATATATTCCTTTTCAATAATAAGAAAGGTA
For B35, the binding signal in data set [1] was 9.13 ln median PBM intensity, better of two orientations; in data set [2] it was 8.89 ln median PBM intensity, better of two orientations.

B36: CACACA_negctrl_site1411 (dsDNA)
DNA 1: AATTAAAGGAATTACAACTTTGCAAGCGCAACATAA
DNA 2: TTATGTTGCGCTTGCAAAGTTGTAATTCCTTTAATT
As to B36, the binding signal in data set [1] is 9.47 ln median PBM intensity, better of two orientations.

B37: CACACA_negctrl_site1162 (dsDNA)
DNA 1: ACACAAAAAAAAAAAAAAAAAAAAAAAAAAAAGGAA
DNA 2: TTCCTTTTTTTTTTTTTTTTTTTTTTTTTTTTGTGT
With B37, the binding signal in data set [1] is 9.5 ln median PBM intensity, better of two orientations.

B38: CACACA_negctrl_site580 (dsDNA)
DNA 1: TATTAAAAAAAAAAATAAAAAAATAAAATAAAATAA
DNA 2: TTATTTTATTTTATTTTTTTATTTTTTTTTTTAATA
As to B38, the binding signal in data set [1] was 9.47 ln median PBM intensity, better of two orientations.

B39: CACACA_negctrl_site1260 (dsDNA)
DNA 1: TAAATCATTTCATGGCATTTACACAAAATTTTTTAA
DNA 2: TTAAAAAATTTTGTGTAAATGCCATGAAATGATTTA
In the case of B39, the binding signal in data set [1] was 9.48 ln median PBM intensity, better of two orientations.
